The target in the experiment is imiglucerase/Cerezyme (recombinant GCase, Sanofi Genzyme), P04062.

*: point of attachment. Biotin = O=C1N[C@H]2[C@H](CS[C@H]2CCCCC(=O)*)N1

Sequence of imiglucerase/Cerezyme (recombinant GCase, Sanofi Genzyme), P04062 (P04062 40-536): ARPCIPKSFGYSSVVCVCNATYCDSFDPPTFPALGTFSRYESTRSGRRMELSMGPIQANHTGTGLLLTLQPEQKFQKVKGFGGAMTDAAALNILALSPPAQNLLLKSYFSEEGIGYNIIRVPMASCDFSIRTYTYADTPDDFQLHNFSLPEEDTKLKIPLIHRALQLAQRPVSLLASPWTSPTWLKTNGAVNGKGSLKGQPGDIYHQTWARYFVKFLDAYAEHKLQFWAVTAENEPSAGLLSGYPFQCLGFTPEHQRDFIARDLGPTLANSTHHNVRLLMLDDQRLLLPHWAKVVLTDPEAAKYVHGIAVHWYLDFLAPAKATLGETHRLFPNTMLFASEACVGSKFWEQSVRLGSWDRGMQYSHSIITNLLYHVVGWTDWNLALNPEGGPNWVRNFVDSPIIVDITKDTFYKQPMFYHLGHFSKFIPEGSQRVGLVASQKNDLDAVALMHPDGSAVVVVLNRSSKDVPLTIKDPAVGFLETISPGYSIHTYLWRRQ

With Biotin-KFERQGSGSQVHFLREIIEAMLKAYQSGSGYGRKKRRQRRR-NH2 [L2H5‐wt peptide (LIMP‐2‐derived helix 5 peptide)], the other worked out at 2.63 fold.

Source of the values: paper PMC11220700, “Activation and Purification of ß‐Glucocerebrosidase by Exploiting its Transporter LIMP‐2 – Implications for Novel Treatment Strategies in Gaucher's and Parkinson's Disease” (Advanced Science, 2024).
